Reference: patent publication CN111690061A (EASTERN THEATER COMMAND DISEASE CONTROL AND PREVENTION …, dated 2020)

Biological target: T1, 鼠疫耶尔森菌抗原F1 (重组F1蛋白) (Yersinia pestis, UniProt P26948 22-170)
T1 construct: also called F1抗原; 鼠疫抗原F1
Experiment: immunological detection (免疫学检测)

T1 sequence (P26948 22-170 limits assumed): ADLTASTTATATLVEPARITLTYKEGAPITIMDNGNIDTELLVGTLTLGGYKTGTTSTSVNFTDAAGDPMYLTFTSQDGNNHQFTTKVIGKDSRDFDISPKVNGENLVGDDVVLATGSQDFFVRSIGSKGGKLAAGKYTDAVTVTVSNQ

B1: 人鼠嵌合单克隆抗体 hm YF202 (antibody, V domains shown)
VH: ESGPDLVKPSQSLSLTCTVTGYSITSGYSWHWIRQFPGNKLEWMGYIHYSGSTNYNPSLKSRISITRDTSKNQFFLQLNSVTTEDTATYYCARNYAMDYWGQGTLVTVS
VL: DIVMTQSPKFMSTSVGDRVSVTCKASQNVGTNVAWYQQKPGQSPKALIYSASYRYSGVPDRFTGSGSGTDFTLTISNVQSEDLAEYFCQQYNSYPYTFGGGTKLEIKR
notes: also called 抗F1的人鼠嵌合单克隆抗体
B1: binds.
